First the molecules themselves.
B1: RFX8-001 (peptide)
peptide: YLKSVQLF
notes: also called YLKSVQLF
B2: MMP13-004 (peptide)
peptide: EYNVFPRTL
notes: also called EYNVFPRTL
B3: LAMC2-018 (peptide)
peptide: DYSKQALSL
notes: also called DYSKQALSL
B4: F5-007 (peptide)
peptide: SIYPHGVTF
notes: also called SIYPHGVTF
B5: SMC1B-002 (peptide)
peptide: IFQHFCEEI
notes: also called IFQHFCEEI
B6: ESR-001 (peptide)
peptide: VWSCEGCKAF
notes: also called VWSCEGCKAF
B7: COL11A1-005 (peptide)
peptide: RPEKVFVF
notes: also called RPEKVFVF
B8: ANO7-001 (peptide)
peptide: FLPRAYYRW
notes: also called FLPRAYYRW
B9: COL10-001 (peptide)
peptide: MLPQIPFLLL
notes: also called MLPQIPFLLL
B10: PAE-002 (peptide)
peptide: IMQGFIRAF
notes: also called IMQGFIRAF
B11: SLC6A3-001 (peptide)
peptide: FMVIAGMPLF
notes: also called FMVIAGMPLF
B12: ANO7-004 (peptide)
peptide: MHRTWRETF
notes: also called MHRTWRETF
B13: QRFPR-002 (peptide)
peptide: ALFAVCWAPF
notes: also called ALFAVCWAPF
B14: TRDV3-001 (peptide)
peptide: IRPDYSFQF
notes: also called IRPDYSFQF
B15: ANO7-005 (peptide)
peptide: RRYFGEKVAL
notes: also called RRYFGEKVAL
B16: DLX5-003 (peptide)
peptide: SYLENSASW
notes: also called SYLENSASW
B17: COL24-002 (peptide)
peptide: SWHKATFLF
notes: also called SWHKATFLF
B18: OXTR-002 (peptide)
peptide: VYIVPVIVL
notes: also called VYIVPVIVL
B19: PLA2G2D-001 (peptide)
peptide: IYKDYYRYNF
notes: also called IYKDYYRYNF
B20: DNAH17-003 (peptide)
peptide: SYLWTDNLQEF
notes: also called SYLWTDNLQEF
B21: GABRP-004 (peptide)
peptide: NYTRLVLQF
notes: also called NYTRLVLQF
B22: AR-002 (peptide)
peptide: YQSRDYYNF
notes: also called YQSRDYYNF
B23: LOXL4-003 (peptide)
peptide: AWSPPATLFLF
notes: also called AWSPPATLFLF
B24: SYT12-001 (peptide)
peptide: SYLPTAERL
notes: also called SYLPTAERL
B25: SLC45A3-004 (peptide)
peptide: IYFATQVVF
notes: also called IYFATQVVF
B26: UGT1A3-002 (peptide)
peptide: KYLSIPTVFF
notes: also called KYLSIPTVFF
B27: GABRP-007 (peptide)
peptide: YTIERYFTL
notes: also called YTIERYFTL
B28: F5-005 (peptide)
peptide: IYYSHENLI
notes: also called IYYSHENLI
B29: SCGB2A1-001 (peptide)
peptide: VYDSIWCNM
notes: also called VYDSIWCNM
B30: GABRP-005 (peptide)
peptide: TYVPSTFLV
notes: also called TYVPSTFLV
B31: ERV-002 (peptide)
peptide: KWFDSHIPRW
notes: also called KWFDSHIPRW
B32: CYP1A1-002 (peptide)
peptide: RYLPNPSLNAF
notes: also called RYLPNPSLNAF
B33: HMCN1-011 (peptide)
peptide: LYIDKGQYL
notes: also called LYIDKGQYL
B34: CLEC17-005 (peptide)
peptide: RWLDGSPVTL
notes: also called RWLDGSPVTL
B35: HEPHL-004 (peptide)
peptide: RYFDENIQKF
notes: also called RYFDENIQKF
B36: IL9R-001 (peptide)
peptide: RYTGQWSEW
notes: also called RYTGQWSEW
B37: BTBD16-004 (peptide)
peptide: TYSKTIALYGF
notes: also called TYSKTIALYGF
B38: KLHDC7B-006 (peptide)
peptide: RYSPVKDAW
notes: also called RYSPVKDAW
B39: BTBD16-002 (peptide)
peptide: LYGFFFKI
notes: also called LYGFFFKI
B40: FCRL2-004 (peptide)
peptide: YFCSTKGQLF
notes: also called YFCSTKGQLF
B41: EML-002 (peptide)
peptide: VYKEDLPQL
notes: also called VYKEDLPQL
B42: CDK6-007 (peptide)
peptide: SYATPVDLW
notes: also called SYATPVDLW
B43: KISS1R-003 (peptide)
peptide: LYAFLGSHF
notes: also called LYAFLGSHF
B44: SLC5A4-001 (peptide)
peptide: AYLKLLPMF
notes: also called AYLKLLPMF
B45: OR51E2-003 (peptide)
peptide: IGLSVVHRF
notes: also called IGLSVVHRF
B46: FLT3-010 (peptide)
peptide: FYKLIQNGF
notes: also called FYKLIQNGF
B47: KBTBD8-005 (peptide)
peptide: VLQGEFFLF
notes: also called VLQGEFFLF
B48: GABRP-006 (peptide)
peptide: TYVPSTFLVVL
notes: also called TYVPSTFLVVL
B49: ESR1-008 (peptide)
peptide: NYPEGAAYEF
notes: also called NYPEGAAYEF
B50: DCX-001 (peptide)
peptide: VYAVSSDRF
notes: also called VYAVSSDRF
B51: SPER-001 (peptide)
peptide: PYFSPSASF
notes: also called PYFSPSASF
B52: MSX-001 (peptide)
peptide: QYLSIAERAEF
notes: also called QYLSIAERAEF
B53: CAPN6-003 (peptide)
peptide: NYVLVPTMF
notes: also called NYVLVPTMF
B54: LAMA3-002 (peptide)
peptide: GYFGNPQKF
notes: also called GYFGNPQKF
B55: POT-002 (peptide)
peptide: LQPQPQLFFSF
notes: also called LQPQPQLFFSF
B56: NPFFR2-002 (peptide)
peptide: IYIYPFAHW
notes: also called IYIYPFAHW
B57: FCRL5-004 (peptide)
peptide: FYHEDMPLW
notes: also called FYHEDMPLW
B58: PTP-042 (peptide)
peptide: VFPLVTPLL
notes: also called VFPLVTPLL
B59: TGM4-003 (peptide)
peptide: TYINSLAIL
notes: also called TYINSLAIL
B60: MAGEB1-001 (peptide)
peptide: KYKDHFTEI
notes: also called KYKDHFTEI

Bounds are passed on as bounds.

The first experiment addresses T1, HLA-A*24.
T1 construct: Monomers captured on streptavidin plates; also called peptide-receptive MHC molecules; MHC complexes
Nature of the experiment: UV peptide-exchange ELISA (anti-b2m); yield grade ++ = >20%. An excerpt:
(§1) Candidate peptides for T cell based therapies according to the present invention were further tested for their MHC binding capacity (affinity). The individual peptide-MHC complexes were produced by UV-ligand exchange, where a UV-sensitive peptide is cleaved upon UV-irradiation, and exchanged with the peptide of interest as analyzed. Only peptide candidates that can effectively bind and stabilize the peptide-receptive MHC molecules prevent dissociation of the MHC complexes. To determine the yield of the exchange reaction, an ELISA was performed based on the detection of the light chain (p2m) of stabilized MHC complexes. The assay was performed as generally described in Rodenko et al. (Rodenko et al., 2006)
(§2) 96 well MAXISorp plates (NUNC) were coated over night with 2 ug/ml streptavidin in PBS at room temperature, washed 4× and blocked for 1 h at 37° C. in 2% BSA containing blocking buffer. Refolded HLA-A*02:01/MLA-001 monomers served as standards, covering the range of 15-500 ng/ml. Peptide-MHC monomers of the UV-exchange reaction were diluted 100-fold in blocking buffer. Samples were incubated for 1 h at 37° C., washed four times, incubated with 2 ug/ml HRP conjugated anti-β2m for 1h at 37° C., washed again and detected with TMB solution that is stopped with […]. Absorption was measured at 450 nm. Candidate peptides that show a high exchange yield (preferably higher than 50%, most preferred higher than 75%) are generally preferred for a generation and production of antibodies or fragments thereof, and/or T cell receptors or fragments thereof, as they show sufficient avidity to the MHC molecules and prevent dissociation of the MHC complexes.
On the technique in general: An ELISA detects its analyte on a solid surface through an enzyme-linked reagent.
Turning to B1, the peptide exchange yield is 20 to 50%.
On to B2, for which the peptide exchange yield is 20 to 50%.
For B3, the peptide exchange yield is 20 to 50%.
Consider B4, for which the peptide exchange yield is 20 to 50%.
For B5, the peptide exchange yield is 20 to 50%.
B6 registered a peptide exchange yield of 20 to 50%.
On the same count and under the same terms, the value for B7 was 20 to 50%; that for B8 was 20 to 50%.
With B9, the peptide exchange yield was 20 to 50%.
The molecule B10 returned a peptide exchange yield of 20 to 50%.
As to B11, the peptide exchange yield was in the range of 20 to 50%.
In turn, B12 showed a peptide exchange yield of 20 to 50%.
Regarding B13, the peptide exchange yield was in the range of 20 to 50%.
Same read-out and setting: the value for B14 was 20 to 50%.
The same measure, in the same setting: then B15, with 20 to 50%.

The next experiment concerns the target T1, HLA-A*24. Nature of the experiment: UV peptide-exchange ELISA (anti-b2m); yield grade ++++ = >75%.
Excerpt: as §1, §2
B16 came in with a peptide exchange yield of over 75%.
The same measure, in the same setting: then B17, with over 75%; and B18, with over 75%; and B19, with over 75%.
B20 had a peptide exchange yield of over 75%.
Molecule B21 displayed a peptide exchange yield of over 75%.
For the molecule B22, the peptide exchange yield was over 75%.
Same read-out and setting: the value for B23 was over 75%.
The molecule B24 had a peptide exchange yield of over 75%.
B25 displayed a peptide exchange yield of over 75%.
Regarding B26, the peptide exchange yield is over 75%.
Take B27: the peptide exchange yield was over 75%.
B28: the peptide exchange yield is over 75%.
B29 yielded a peptide exchange yield of over 75%.
Turning to B30, the peptide exchange yield was over 75%.
Still for that read-out and setting: the value for B31 was over 75%; that for B32 was over 75%.
Same read-out and setting: the value for B33 was over 75%; that for B34 was over 75%; that for B35 was over 75%.
The molecule B36 had a peptide exchange yield of over 75%.
The same measure, in the same setting: then B37, with over 75%; and B38, with over 75%; and B39, with over 75%.
The molecule B40 yielded a peptide exchange yield of over 75%.
B41 displayed a peptide exchange yield of over 75%.
On the same count and under the same terms, the value for B42 was over 75%; that for B43 was over 75%; that for B44 was over 75%.
Consider B45, for which the peptide exchange yield is over 75%.
On the same count and under the same terms, then B46, with over 75%; and B47, with over 75%.
Regarding B48, the peptide exchange yield is over 75%.
Turning to B49, the peptide exchange yield is over 75%.
Molecule B50 displayed a peptide exchange yield of over 75%.
B51 had a peptide exchange yield of over 75%.
Molecule B52 displayed a peptide exchange yield of over 75%.
B53 returned a peptide exchange yield of over 75%.
The molecule B54 came in with a peptide exchange yield of over 75%.
The same measure, in the same setting: then B55, with over 75%; and B56, with over 75%; and B57, with over 75%.
Regarding B58, the peptide exchange yield was over 75%.
B59: the peptide exchange yield was over 75%.
For the molecule B60, the peptide exchange yield was over 75%.

For the origin of these results see patent publication US20190352359A1 (IMMATICS BIOTECHNOLOGIES, published 2019).
